Values of other authors as cited in publication doi:10.1101/2021.06.28.450170.

Experiments:
[1] = target: Cys797 (UniProt position 797, LMPFGCLLDYV); experiment: chemical modification
[2] = target: Cys442 (UniProt position 442, FMEHGCLSDYL)
[3] = target: Cys481 (UniProt position 481, YMANGCLLNYL)

Substance: Epidermal growth factor receptor (EGFR) kinase (Homo sapiens)
- pKa [1]: 5.5

Substance: Interleukin-2-inducible T-cell kinase (ITK) (Homo sapiens)
- pKa [2]: 8.5

Substance: Bruton's tyrosine kinase (BTK) (Homo sapiens)
- pKa [3]: 7.7
